{"source": "patent US12221480", "binders": {"B1": {"name": "δ3-31 (antibody, V domains shown)", "VH": "DVQLQESGPDLVKPSQSLSLTCTVTGYSITSGYGWHWIRQFPGNKLEWMGYISFSGSNKYNPSLKSRISITRDTSKNQFFLQLNSVTTEDTATYYCANLDYWGQGTTLTVSS", "VL": "DIQMTQRTSSLSASLGDRVTISCSASQDITNYLHWFQQKPDGTVKLLIYYTSTLHSGVPSRFSGSGSGTDYSLTISNLEPEDIATYYCQQYSKLPYTFGGGTKLEITR"}}, "key": {"[1]": {"molecular_target": "recombinant human soluble γ2 δ3TCR-FC (wild type) (human) (UniProt B7Z8K6)", "experiment": "Luminex beads; TCR-hFc captured by goat anti-human Fc; antibody titrated"}, "[2]": {"molecular_target": "γ2δ3 TCR-hFc mutant S1 (D10N in the Vδ3 chain) (human) (UniProt B7Z8K6)", "experiment": "Luminex beads; TCR-hFc captured by goat anti-human Fc; antibody titrated"}, "[3]": {"molecular_target": "γ2δ3 TCR-hFc mutant S10 (K3A, K79L, H88T in the Vδ3 chain) (human) (UniProt B7Z8K6)", "experiment": "Luminex beads; TCR-hFc captured by goat anti-human Fc; antibody titrated"}, "[4]": {"molecular_target": "γ2δ3 TCR-hFc mutant S11 (K79L, L82K, H88F in the Vδ3 chain) (human) (UniProt B7Z8K6)", "experiment": "Luminex beads; TCR-hFc captured by goat anti-human Fc; antibody titrated"}, "[5]": {"molecular_target": "γ2δ3 TCR-hFc mutant S2 (D26N, K85L in the Vδ3 chain) (human) (UniProt B7Z8K6)", "experiment": "Luminex beads; TCR-hFc captured by goat anti-human Fc; antibody titrated"}, "[6]": {"molecular_target": "γ2δ3 TCR-hFc mutant S3 (K79L, H88F in the Vδ3 chain) (human) (UniProt B7Z8K6)", "experiment": "Luminex beads; TCR-hFc captured by goat anti-human Fc; antibody titrated"}, "[7]": {"molecular_target": "γ2δ3 TCR-hFc mutant S4 (E18Q in the Vδ3 chain) (human) (UniProt B7Z8K6)", "experiment": "Luminex beads; TCR-hFc captured by goat anti-human Fc; antibody titrated"}, "[8]": {"molecular_target": "γ2δ3 TCR-hFc mutant S5 (D70N, E67Q in the Vδ3 chain) (human) (UniProt B7Z8K6)", "experiment": "Luminex beads; TCR-hFc captured by goat anti-human Fc; antibody titrated"}, "[9]": {"molecular_target": "γ2δ3 TCR-hFc mutant S7 (D57N, R65Q in the Vδ3 chain) (human) (UniProt B7Z8K6)", "experiment": "Luminex beads; TCR-hFc captured by goat anti-human Fc; antibody titrated"}, "[10]": {"molecular_target": "γ2δ3 TCR-hFc mutant S8 (K79L, E18Q, H88F in the Vδ3 chain) (human) (UniProt B7Z8K6)", "experiment": "Luminex beads; TCR-hFc captured by goat anti-human Fc; antibody titrated"}, "[11]": {"molecular_target": "γ2δ3 TCR-hFc mutant S6 (R75Q, R95Q in the Vδ3 chain) (human) (UniProt B7Z8K6)", "experiment": "Luminex beads; TCR-hFc captured by goat anti-human Fc; antibody titrated; extrapolated value, no saturation achieved"}, "[12]": {"molecular_target": "γ2δ3 TCR-hFc mutant S9 (E67Q, D70N, R75Q, R95Q, E97Q in the Vδ3 chain) (human) (UniProt B7Z8K6)", "experiment": "Luminex beads; TCR-hFc captured by goat anti-human Fc; antibody titrated; extrapolated value, no saturation achieved"}, "[13]": {"molecular_target": "recombinant human soluble γ2 δ3TCR-FC (wild type) (human) (UniProt B7Z8K6)", "experiment": "Octet, γ2δ3TCR-hFc captured on anti-human Fc biosensor; row antibody δ3-08 taken as first (saturating), column antibody as second; 5 µg/mL each"}, "[14]": {"molecular_target": "recombinant human soluble γ2 δ3TCR-FC (wild type) (human) (UniProt B7Z8K6)", "experiment": "Octet, γ2δ3TCR-hFc captured on anti-human Fc biosensor; row antibody δ3-23 taken as first (saturating), column antibody as second; 5 µg/mL each"}, "[15]": {"molecular_target": "recombinant human soluble γ2 δ3TCR-FC (wild type) (human) (UniProt B7Z8K6)", "experiment": "Octet, γ2δ3TCR-hFc captured on anti-human Fc biosensor; row antibody δ3-42 taken as first (saturating), column antibody as second; 5 µg/mL each"}, "[16]": {"molecular_target": "recombinant human soluble γ2 δ3TCR-FC (wild type) (human) (UniProt B7Z8K6)", "experiment": "Octet, γ2δ3TCR-hFc captured on anti-human Fc biosensor; row antibody δ3-58 taken as first (saturating), column antibody as second; 5 µg/mL each"}, "[17]": {"molecular_target": "recombinant human soluble γ2 δ3TCR-FC (wild type) (human) (UniProt B7Z8K6)", "experiment": "Octet, γ2δ3TCR-hFc captured on anti-human Fc biosensor; row antibody δ3-31 taken as first (saturating), column antibody as second; 5 µg/mL each; self pair"}}}
{"binder": "B1", "values": [{"measurement": "EC50", "setting": "[1]", "result": 0.05, "unit": "nM"}, {"measurement": "EC50", "setting": "[2]", "result": 0.06, "unit": "nM"}, {"measurement": "EC50", "setting": "[3]", "result": 0.08, "unit": "nM"}, {"measurement": "EC50", "setting": "[4]", "result": 0.06, "unit": "nM"}, {"measurement": "EC50", "setting": "[5]", "result": 0.05, "unit": "nM"}, {"measurement": "EC50", "setting": "[6]", "result": 0.05, "unit": "nM"}, {"measurement": "EC50", "setting": "[7]", "result": 0.05, "unit": "nM"}, {"measurement": "EC50", "setting": "[8]", "result": 4.99, "unit": "nM"}, {"measurement": "EC50", "setting": "[9]", "result": 0.05, "unit": "nM"}, {"measurement": "EC50", "setting": "[10]", "result": 0.06, "unit": "nM"}, {"measurement": "EC50", "setting": "[11]", "result": 44.4, "unit": "nM"}, {"measurement": "EC50", "setting": "[12]", "result": 37.7, "unit": "nM"}, {"measurement": "paired-competition value (Octet signal of the second antibody per paragraph 256)", "setting": "[13]", "result": 0.44}, {"measurement": "paired-competition value (Octet signal of the second antibody per paragraph 256)", "setting": "[14]", "result": 0.4}, {"measurement": "paired-competition value (Octet signal of the second antibody per paragraph 256)", "setting": "[15]", "result": 0.37}, {"measurement": "paired-competition value (Octet signal of the second antibody per paragraph 256)", "setting": "[16]", "result": 0.38}, {"measurement": "paired-competition value (Octet signal of the second antibody per paragraph 256)", "setting": "[17]", "result": 0.07}]}
